Measured values reported in patent publication US20120214208.

Tests used:
[1] = test system: ligase-PprA (phage T4 / Deinococcus radiodurans fusion); settings: transformation assay; no-ligase control 4
T4 DNA ligase (phage T4) = settings: transformation assay after 16 C 60 min; no-ligase control 4
[2] = test system: p50-ligase (NF-kappaB p50 40-366 fused to N-terminus of T4 DNA ligase) (Homo sapiens / phage T4 fusion); settings: transformation assay; no-ligase control 4

pCA24N-ompC HindIII/SpeI vector (5032 bp) and insert (1311 bp)
activity [1]: 53 colonies | activity (T4 DNA ligase (phage T4)): 47 colonies | activity [2]: 17 colonies
